# Measurements from paper PMC3105396 (Nucleic Acids Research, 2011).
# B1: TEFM (transcription elongation factor of mitochondria), endogenous (natural protein, human (endogenous in HEK 293T), UniProt Q96QE5 36-360, looked up)
# chain: KSTTPKKITPNVTFCDENAKEPENALDKLFSSEQQASILHVLNTASTKELEAFRLLRGRRSINIVEHRENFGPFQNLESLMNVPLFKYKSTVQVCNSILCPKTGREKRKSPENRFLRKLLKPDIERERLKAVNSIISIVFGTRRIAWAHLDRKLTVLDWQQSDRWSLMRGIYSSSVYLEEISSIISKMPKADFYVLEKTGLSIQNSSLFPILLHFHIMEAMLYALLNKTFAQDGQHQVLSMNRNAVGKHFELMIGDSRTSGKELVKQFLFDSILKADPRVFFPSDKIVHYRQMFLSTELQRVEELYDSLLQAIAFYELAVFDSQP
# Target: POLRMT.STREP2 (POLRMT carrying a FLAG and a STREP2 binding group) (human, UniProt O00411 42-1230)
# Assay: pull-down
# Chain of POLRMT.STREP2 (POLRMT carrying a FLAG and a STREP2 binding group) (O00411 42-1230): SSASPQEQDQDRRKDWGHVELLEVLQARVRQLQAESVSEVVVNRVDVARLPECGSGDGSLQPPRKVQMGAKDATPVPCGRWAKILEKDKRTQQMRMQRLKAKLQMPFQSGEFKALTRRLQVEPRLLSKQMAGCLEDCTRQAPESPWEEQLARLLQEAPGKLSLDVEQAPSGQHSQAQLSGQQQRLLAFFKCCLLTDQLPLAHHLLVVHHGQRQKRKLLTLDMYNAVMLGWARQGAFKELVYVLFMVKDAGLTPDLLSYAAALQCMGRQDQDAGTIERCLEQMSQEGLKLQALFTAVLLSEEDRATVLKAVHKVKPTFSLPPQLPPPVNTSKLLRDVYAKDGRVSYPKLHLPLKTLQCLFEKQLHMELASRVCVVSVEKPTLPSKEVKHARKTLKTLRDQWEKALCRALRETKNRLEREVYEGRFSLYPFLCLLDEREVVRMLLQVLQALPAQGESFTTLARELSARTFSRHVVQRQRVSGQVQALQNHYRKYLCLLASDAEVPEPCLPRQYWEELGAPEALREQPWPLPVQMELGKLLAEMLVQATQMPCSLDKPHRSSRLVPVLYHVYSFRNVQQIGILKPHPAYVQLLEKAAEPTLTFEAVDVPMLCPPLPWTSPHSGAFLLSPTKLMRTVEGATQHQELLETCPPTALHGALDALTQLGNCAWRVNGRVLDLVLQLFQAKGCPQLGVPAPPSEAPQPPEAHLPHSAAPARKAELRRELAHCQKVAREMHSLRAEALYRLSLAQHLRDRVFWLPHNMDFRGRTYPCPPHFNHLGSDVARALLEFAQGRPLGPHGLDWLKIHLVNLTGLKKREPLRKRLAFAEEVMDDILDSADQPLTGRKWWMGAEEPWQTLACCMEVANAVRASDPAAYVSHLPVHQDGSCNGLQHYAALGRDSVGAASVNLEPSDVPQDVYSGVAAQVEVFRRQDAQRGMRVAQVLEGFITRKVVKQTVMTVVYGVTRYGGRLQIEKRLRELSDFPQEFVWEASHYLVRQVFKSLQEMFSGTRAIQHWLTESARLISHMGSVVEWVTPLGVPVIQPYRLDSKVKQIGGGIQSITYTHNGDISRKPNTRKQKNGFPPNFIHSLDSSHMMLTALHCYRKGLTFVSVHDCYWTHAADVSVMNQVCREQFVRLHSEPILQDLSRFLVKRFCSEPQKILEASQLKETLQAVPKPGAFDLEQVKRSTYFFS
binder,measurement,value
B1,amount in the POLRMT.STREP2 peak elution fractions relative to TFAM,2 fold
same,amount in the POLRMT.STREP2 peak elution fractions relative to TFB2M,5 fold
